# Measured values as given in EP4631972A1, “SITE-SPECIFIC COUPLED PEGYLATED INTERLEUKIN-2 MUTANT WITH RECEPTOR AFFINITY PREFERENCE AND USE THEREOF” (priority 2022, dated 2024).
# Assays:
# Treg cells [1] = experiment: Pharmacodynamic study in cynomolgus monkeys, peripheral Treg cells; type: in vivo; settings: doses ≤400 µg/kg
# From the text: For information on administration and grouping, see Table 14.
# Treg cells [2] = experiment: Pharmacodynamic (PD) study in mice, peripheral Treg cells; type: in vivo, Balb/c mice; settings: 1 mg/kg s.c. single administration
# Protocol: In this example, the pharmacodynamics (PD) of each IL-2 mutant obtained in Example 6 was studied in mice after a single administration to mice. SPF grade Balb/c mice were purchased and randomly divided into groups according to body weight, with 3 mice in each group. Drug administration started on the day of grouping. The dosing and grouping information is shown in Table 9, where G1-G5 were administered once, G6 and G7 were administered once a day, for a total of three doses. 30 µl of blood was taken from each group of mice, for PEGylated IL2 mutants and the negative control, blood was collected on day 0 (pre-administration), day 2, 3, 4, 5, 6 and 7 (only for G3, G4 and G5), and for IL2 and IL2-N88R, blood was collected on day 0 (pre-administration), day 1, 2 and 3. The number of each cell subpopulation was measured by flow cytometry. Antibodies against the staining marker used in flow cytometry are shown in Table 10, and the gating settings are shown in Table 11. Table 9 Dosing and grouping table for single-dose PD study in mice
molecule,measurement,setting,value
"80K-1PEG-IL2-N88R-N77C: IL-2 mutant N88R, N77C, conjugation site 77, PEG molecular weight 80kD (conjugate) APTSSSTKKTQLQLEHLLLDLQMILNGINNYKNPKLTRMLTFKFYMPKKATELKHLQCLEEELKPLEEVLNLAQSKC(PEG 80 kDa)FHLRPRDLISRINVIVLELKGSETTFMCEYADETATIVEFLNRWITFSQSIISTLT",activation and proliferation of peripheral blood Treg cells,Treg cells [1],clear activation and proliferation
same,"activation peak of Treg proportion, time",Treg cells [2],6 days
same,increase in Treg proportion at peak,Treg cells [2],about 15 fold
